{"source": "patent US20260226006A1", "about": "“INDOLE COMPOUND, PREPARATION METHOD THEREFOR AND USE THEREOF” (SUZHOU MERNA THERAPEUTICS CO. LTD, priority 2023, published 2026)", "molecules": {"B1": {"name": "recombinant HBEGF protein: recombinant HBEGF protein used to induce keratinocyte differentiation (protein, UniProt Q99075 63-148, looked up)", "Heparin-binding EGF-like …": "DLQEADLDLLRVTLSSKPQALATPNKEEHGKRKKKGKGLGKKRDPCLRKYKDFCIHGECKYVKELRAPSCICHPGYHGERCHGLSL"}}, "key": {"HaCaT keratinocytes": {"test_system": "HaCaT keratinocytes", "assay": "Inhibition of HBEGF-induced differentiation of HaCaT keratinocytes, marker mRNA by RT-PCR (Example 21)", "format": "cell-based, human", "settings": "2.5 ng/mL human recombinant HBEGF protein alone, 24 hours", "procedure": "Human HaCaT keratinocytes were cultured in a DMEM culture medium containing 10% fetal bovine serum, 100 U/mL penicillin, and 100 µg/mL streptomycin. The cells were seeded into a 96-well plate at a density of […] and placed in an incubator containing 5% carbon dioxide for culture at 37° C. for 24 hours. An equal volume of DMSO was added into control well 1, a 2.5 ng/mL human recombinant HBEGF protein (Abcam, ab205523) was added into control well 2, and a 2.5 ng/mL human recombinant HBEGF protein and corresponding concentrations of test compounds were added into sample wells. The cells were continuously cultured for 24 hours, washed with PBS, and then collected by high-speed centrifugation. Total RNA was extracted using a Trizol reagent (Sigma Aldrich). 1 μg of RNA was reverse-transcribed into cDNA using a cDNA reverse transcription kit (Transgene Biotech, AT311-03). 1.25 μL of a primer (with a primer sequence shown in Table 2), 10 μL of an iTag Universal SYBR Green supermix (Bio-Rad, 172-S125), and an appropriate amount of DEPC ultrapure water were added to formulate 20 μL of a reaction solution to perform an RT-PCR reaction. Upon completion of the reaction, the reaction solution was subjected to agarose gel electrophoresis to determine the mRNA expression amounts of keratinocyte differentiation markers KRT1, KRT10, Loricrin, and Involucrin."}, "[1]": {"test_system": "KRT1, KRT10, Loricrin, and Involucrin in HaCat keratinocytes", "assay": "Expression of keratinocyte differentiation markers in HaCat cells, RT-PCR and Western blot (Example 18)", "format": "cell-based, human", "settings": "HBEGF protein alone, 24 hours", "procedure": "1*10^8 HaCat cells were seeded in culture dishes, into which a recombinant HBEGF protein (Thermo Fisher Scientific, Cat. #100-47-1 mg) was added. The cells were placed in an incubator containing 5% carbon dioxide for culture at 37° C. for 24 hours, into which an HBEGF antibody (Invitrogen, Cat. #406316) was added, or METTL3 siRNA (sh-METTL3, GeneChem) and NAP1L2 siRNA (sh-NAP1L2, GeneChem) were transfected. The cells were placed in an incubator containing 5% carbon dioxide for culture at 37° C. for 24 hours, washed with PBS, and then collected by high-speed centrifugation. An RLT lysis buffer was added to the above collected cells, the mixture was shaken at 4° C. for half an hour and centrifuged to collect the supernatant, and the protein expression amounts of keratinocyte differentiation markers KRT1, KRT10, Loricrin, and Involucrin were measured by Western blot.\nTotal RNA was extracted using a Trizol reagent (Sigma Aldrich). 1 μg of RNA was reverse-transcribed into cDNA using a cDNA reverse transcription kit (Transgene Biotech, Cat. #AT311-03). 1.25 μL of a primer (with a primer sequence shown in Table 2), 10 μL of an iTag Universal SYBR Green supermix (Bio-Rad, Cat. #172-5125), and an appropriate amount of DEPC ultrapure water were added to formulate 20 μL of a reaction solution to perform an RT-PCR reaction. […]"}}, "data": [{"molecule": "B1", "values": [{"measurement": "mRNA expression amounts of HaCaT differentiation markers KRT1, KRT10, Loricrin, and Involucrin", "setting": "HaCaT keratinocytes", "result": "significantly increased"}, {"measurement": "mRNA and protein expression amounts of KRT1, KRT10, Loricrin, and Involucrin", "setting": "[1]", "result": "significantly increased"}]}]}
